Measured values as given in article PMC6600523, “Interference with Amyloid-β Nucleation by Transient Ligand Interaction” (Molecules, 2019).
Where a SMILES comes first, the peptide text is derived from it. [ ]: non-standard residue; d: D form. The star is where a group is joined. 5FAM = O=C1OC2(c3ccc(O)cc3Oc3cc(O)ccc32)c2ccc(C(=O)*)cc21

Tests used:
[1] = Sedimentation velocity AUC with fluorescence detection, labeled peptide alone; type: physicochemical; details: AUC-FDS, 60,000 rpm, 20 °C, 15 h, c(s) model; 0.2 μM FITC-D3 in 20 mM sodium phosphate, 50 mM NaCl pH 7.4, 0.0004% PEI; 0.33 μM FITC-Aβ42 in 55 mM Tris, 50 mM NaCl pH 7.4, 0.01% Tw20
Description: All measurements were performed using an XL-A analytical ultracentrifuge (Beckman coulter, Brea, CA, USA). […] All samples were prepared in 20 mM sodium phosphate, 50 mM NaCl (pH 7.4) containing 0.0004% PEI (w/v). Samples were then loaded into 3-mm double-sector titanium cells (Nanolytics, Potsdam, Germany), with each sector containing a 100 μL sample. The detection system uses an excitation laser at 488 nm and an emission cut-off filter at 505 nm to collect fluorescence signals. The amplification factor was adjusted to the same value for all samples for comparability. […] Data was acquired at 20 nm radial resolution. After thorough thermal equilibration the centrifugation was carried out at 60,000 rpm (289,000× g) at 20 °C for 15 h. Carrier proteins, such as albumin and kappa casein, are usually recommended to minimize unspecific surface adsorption for fluorescence-based AUC [56]. All sedimentation profiles were subjected to the software package SEDFIT (version 15.01b) for data evaluation. The data was analyzed with the continuous distribution c(s) Lamm equation model to obtain the sedimentation coefficient distributions. Fitting parameters (Table S1) including the buffer density and viscosity were determined using Sednterp (version 20130813BETA). […]

[2] = target: T1, Aβ42 (Homo sapiens, UniProt P05067); assay: Sedimentation velocity AUC with fluorescence detection, Aβ42 and D3 mixtures; type: binding
T1 construct: purchased Bachem H-1368.1000
T1 sequence (P05067 672-713 limits assumed): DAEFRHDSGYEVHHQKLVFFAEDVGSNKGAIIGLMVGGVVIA
Description: All measurements were performed using an XL-A analytical ultracentrifuge (Beckman coulter, Brea, CA, USA). […] All samples were prepared in 20 mM sodium phosphate, 50 mM NaCl (pH 7.4) containing 0.0004% PEI (w/v). Samples were then loaded into 3-mm double-sector titanium cells (Nanolytics, Potsdam, Germany), with each sector containing a 100 μL sample. The detection system uses an excitation laser at 488 nm and an emission cut-off filter at 505 nm to collect fluorescence signals. The amplification factor was adjusted to the same value for all samples for comparability. […] Data was acquired at 20 nm radial resolution. After thorough thermal equilibration the centrifugation was carried out at 60,000 rpm (289,000× g) at 20 °C for 15 h. Carrier proteins, such as albumin and kappa casein, are usually recommended to minimize unspecific surface adsorption for fluorescence-based AUC [56]. All sedimentation profiles were subjected to the software package SEDFIT (version 15.01b) for data evaluation. The data was analyzed with the continuous distribution c(s) Lamm equation model to obtain the sedimentation coefficient distributions. Fitting parameters (Table S1) including the buffer density and viscosity were determined using Sednterp (version 20130813BETA). […] Final graphs were generated using GUSSI (version 1.2.1) and sedimentation coefficients were standardized to s-values in pure water at 20 °C (s20,w).

[3] = target: T1, Aβ42; assay: ThT assay, fibrillation kinetics of Aβ42; type: biochemical; details: 50 mM NaCl pH 7.4, 20 °C, AmyloFit fit, triplicate
Description: ThT was added at a final concentration of 5 μM in all samples. The final volume of each sample was 200 μL. Samples were prepared on ice and were pipetted into a 96-well plate afterwards. The plate was sealed with a microplate sealing film. All measurements were conducted at 20 °C with a microplate reader (Infinite M200, Tecan, Männedorf, Switzerland). The fluorescence was recorded at an excitation wavelength (λex) of 445 nm and an emission wavelength (λem) of 485 nm every 30 min for 120 h. […] All samples were prepared in triplicate.
The ThT data was then subjected to the online server AmyloFit with a customized sigmoidal Equation (1) to determine the lag time tlag , and the half completion time of the aggregation process t1/2 , according to previous studies. (1) It=k0t+A/1+exp−kt−t1/2, where k0 represents the slope of the baseline, A is the amplitude, k denotes the apparent elongation rate constant. The lag time tlag can be derived from the intercept between the time axis and the tangent with slope k from the midpoint of the fitted sigmoidal curve, which is given by the following Equation (2):(2) tlag=t1/2−2/k

[4] = 20 μM Aβ42 with (label D3, 10:1) or without (label Aβ42) 2 μM D3, 55 mM Tris-HCl

## CC(C)C[C@@H](NC(=O)[C@@H](CCCNC(=N)N)NC(=O)[C@H](NC(=O)[C@@H](CCCNC(=N)N)NC(=O)[C@H]1CCCN1C(=O)[C@H](N)CCCNC(=N)N)[C@H](C)O)C(=O)N[C@H](Cc1c[nH]cn1)C(=O)N[C@@H](C(=O)N[C@H](Cc1c[nH]cn1)C(=O)N[C@H](CCCNC(=N)N)C(=O)N[C@H](CC(N)=O)C(=O)N[C@H](CCCNC(=N)N)C(=O)N[C@@H](CCCCNC(=O)c1ccc2c(c1)C(=O)OC21c2ccc(O)cc2Oc2cc(O)ccc21)C(N)=O)[C@H](C)O [FITC-D3] (H-[dR][dP][dR][dT][dR][dL][dH][dT][dH][dR][dN][dR]K(5FAM)-NH2; N-terminus and C-terminus assumed)
[1]
  Sedimentation coefficient s20,w of the labeled peptide alone: 0.54 ± 0.02 S
[2]; 0.2 μM FITC-D3 with 50-fold excess of Aβ42, 20 mM sodium phosphate, 50 mM NaCl pH 7.4, 0.0004% PEI, interpreted as 1:1 complex
  s20,w of the main peak of FITC-D3 with Aβ42: 0.71 ± 0.04 S
[2]; 0.2 μM FITC-D3 with Aβ42, c(s) analyses from five independent experiments, complexes with higher stoichiometries
  Averaged s20,w of the new species between 1 and 2 S, FITC-D3 with Aβ42: 1.45 ± 0.08 S

## Aβ42: unlabeled amyloid-β peptide 42, Bachem product No. H-1368.1000 [reference compound]
[3]; 20 μM Aβ42 with (label D3) or without (label Aβ42) 2 μM D3, 20 mM sodium phosphate, 5 μM ThT
  Lag time tlag of fibrillation kinetics: 17.3 ± 1.6 h
[3]; [4]
  Lag time tlag of fibrillation kinetics, Tris-HCl buffer: 14.5 ± 1.4 h
  Slope k of fibrillation kinetics, Tris-HCl buffer: 0.13 ± 0.01
